Results reported in patent US20230183233A1, “Bicyclic Pyridin-2-one and pyrimidin-4-one Derivatives Useful As a Factor XIa Inhibitors” (Janssen Pharmaceutica NV, priority 2021, published 2023).

Tested on: Cc1cc(=O)oc2cc(NC(=O)[C@H](CCCNC(=N)N)NC(=O)[C@@H]3CCCN3C(=O)CNC(=O)OCc3ccccc3)ccc12
Assay: Kallikrein inhibition assay utilizing a quenched AMC peptide substrate (FLINT, kinetic read)
Assay type: biochemical, human
Settings: other: peptide substrate for kallikrein; titration data fit to the Michaelis-Menten equation; pH 7.5

human plasma kallikrein (Homo sapiens), sequence (chain, as listed by the source): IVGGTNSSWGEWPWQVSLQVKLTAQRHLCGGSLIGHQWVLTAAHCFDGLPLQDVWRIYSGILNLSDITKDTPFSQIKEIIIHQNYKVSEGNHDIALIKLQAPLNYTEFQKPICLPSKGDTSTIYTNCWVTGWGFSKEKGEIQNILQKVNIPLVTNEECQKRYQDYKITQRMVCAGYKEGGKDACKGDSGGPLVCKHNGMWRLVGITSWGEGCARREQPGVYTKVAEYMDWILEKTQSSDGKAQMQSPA

Substance: human plasma kallikrein (Homo sapiens)
- Km: 40 µM
- kcat: 0.76 s⁻¹
- kcat/Km: 18932 M-is-1
